What was measured:
[1] = target: human PD-1 on cells (human) (UniProt Q15116)
[2] = target: cynomolgus monkey PD-1 on cells (cynomolgus monkey) (UniProt B0LAJ3); experiment: flow cytometry on CHOK1-cPD-1 cells
[3] = target: human PD-1 on cells (human) (UniProt Q15116); experiment: flow cytometry on CHOK1-hPD-1 cells
[4] = target: hPD-1 protein (ELISA coat) (human) (UniProt Q15116); experiment: ELISA against hPD-1 ECD-Fc protein (plate coat)
[5] = target: mPD-1 protein (ELISA coat) (mouse) (UniProt Q02242); experiment: ELISA against mPD-1 ECD-Fc protein (plate coat)
Chain of mPD-1 protein (ELISA coat) (mouse) (Q02242 25-167 limits assumed): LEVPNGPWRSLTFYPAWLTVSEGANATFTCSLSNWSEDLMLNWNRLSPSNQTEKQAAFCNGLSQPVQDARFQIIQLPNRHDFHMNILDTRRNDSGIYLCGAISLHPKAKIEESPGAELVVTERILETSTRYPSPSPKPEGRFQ

[6] = target: human PD-1 on cells (human) (UniProt Q15116); experiment: cell based RBA (flow cytometry): blocking of Biotin-hPD-L1 binding to CHOK1-hPD-1 cells
[7] = target: human PD-1 on cells (human) (UniProt Q15116); experiment: cell based RBA (flow cytometry): blocking of Biotin-hPD-L2 binding to CHOK1-hPD-1 cells

Chain of human PD-1 on cells (human) (Q15116 25-288): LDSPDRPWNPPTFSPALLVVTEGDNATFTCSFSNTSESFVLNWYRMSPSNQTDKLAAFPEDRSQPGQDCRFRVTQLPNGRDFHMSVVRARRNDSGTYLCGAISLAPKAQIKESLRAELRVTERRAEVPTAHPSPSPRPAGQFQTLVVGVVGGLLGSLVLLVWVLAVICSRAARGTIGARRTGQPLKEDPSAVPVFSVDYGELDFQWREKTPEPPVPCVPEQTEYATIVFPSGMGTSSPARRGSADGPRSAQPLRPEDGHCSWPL
Chain of hPD-1 protein (ELISA coat) (human) (Q15116 25-167 limits assumed): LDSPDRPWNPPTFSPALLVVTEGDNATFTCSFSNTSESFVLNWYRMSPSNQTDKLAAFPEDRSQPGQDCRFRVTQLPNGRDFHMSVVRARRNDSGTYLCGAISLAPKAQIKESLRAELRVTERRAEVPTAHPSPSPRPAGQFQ
Chain of cynomolgus monkey PD-1 on cells (cynomolgus monkey) (B0LAJ3 entry or part of it limits assumed): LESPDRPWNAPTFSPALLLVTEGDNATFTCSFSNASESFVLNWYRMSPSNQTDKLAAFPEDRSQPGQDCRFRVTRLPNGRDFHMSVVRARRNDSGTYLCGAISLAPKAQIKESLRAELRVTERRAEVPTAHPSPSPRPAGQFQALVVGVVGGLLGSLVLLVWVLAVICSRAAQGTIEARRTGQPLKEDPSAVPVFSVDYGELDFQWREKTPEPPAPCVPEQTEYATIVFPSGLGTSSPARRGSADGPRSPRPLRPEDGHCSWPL

control human IgG4 (antibody)
EC50 printed for the negative control; its RLU curve is flat at about 270000 and falls to about 225000 at the highest concentration, no activation [1]: 12.4 µg/mL
Max MFI [2]: 86
Max MFI [3]: 107
Max OD450 [4]: 0.67
Max OD450 [5]: 0.92
Inhibition rate [6]: 4.9%
Inhibition rate [7]: -5.5%
